Results on 1 protein are retold here after paper PMC7769281, “The plasticity of the pyruvate dehydrogenase complex confers a labile structure that is associated with its catalytic activity” (PLoS ONE, 2020).

This data set deals with the molecule itself. Briefly: SEC; FLAG-purified E3-5xFLAG on Superose 6 in 350 mM NaCl; peak fraction (16 ml, ~230 kDa) analysed by MudPIT. A general note: Size exclusion chromatography separates by hydrodynamic size, large species first.

B1: yeast PDC E3, Lpd1-5xFLAG (natural protein, S. cerevisiae, UniProt P09624 22-499, looked up)
chain: TINKSHDVVIIGGGPAGYVAAIKAAQLGFNTACVEKRGKLGGTCLNVGCIPSKALLNNSHLFHQMHTEAQKRGIDVNGDIKINVANFQKAKDDAVKQLTGGIELLFKKNKVTYYKGNGSFEDETKIRVTPVDGLEGTVKEDHILDVKNIIVATGSEVTPFPGIEIDEEKIVSSTGALSLKEIPKRLTIIGGGIIGLEMGSVYSRLGSKVTVVEFQPQIGASMDGEVAKATQKFLKKQGLDFKLSTKVISAKRNDDKNVVEIVVEDTKTNKQENLEAEVLLVAVGRRPYIAGLGAEKIGLEVDKRGRLVIDDQFNSKFPHIKVVGDVTFGPMLAHKAEEEGIAAVEMLKTGHGHVNYNNIPSVMYSHPEVAWVGKTEEQLKEAGIDYKIGKFPFAANSRAKTNQDTEGFVKILIDSKTERILGAHIIGPNAGEMIAEAGLALEYGASAEDVARVCHAHPTLSEAFKEANMAAYDKAIHC
notes: Dihydrolipoamide dehydrogenase (E3, Lpd1), S. cerevisiae BY4741; also called E3-5xFLAG; yPDC-E3
As for B1, the binding result is “binds”.
